Measured values reported in the Human Domainome abundance scans (Beltran et al. 2025).
± gives the uncertainty stated by the source.

B1: Chromodomain-helicase-DNA-binding protein 3, residues 374 to 426; numbered along this chain, Q12873 (parent)
chain: YETDHQDYCEVCQQGGEIILCDTCPRAYHLVCLDPELDRAPEGKWSCPHCEKE

Variants of: B1
Assay: abundance fitness (aPCA) (normalised: wild type 0, dead -1); higher = more abundant; growth selection in yeast, the domain comes from the species named
Conditions: Homo sapiens

Variant | abundance fitness
E17H | -0.882 ± 0.33
E17I | -0.353 ± 0.2
E17L | -0.258 ± 0.11
E17M | 0.152 ± 0.13
E17N | 0.07 ± 0.17
E17P | -0.558 ± 0.14
E17Q | -0.147 ± 0.14
E17R | -0.148 ± 0.085
E17S | -0.087 ± 0.094
E17T | 0.053 ± 0.12
E17V | -0.489 ± 0.11
E17Y | -0.031 ± 0.17
I18A | 0.024 ± 0.1
I18C | -0.521 ± 0.19
I18E | 0.13 ± 0.14
I18F | -0.071 ± 0.15
I18G | -0.087 ± 0.11
I18H | 0.063 ± 0.16
I18K | -0.124 ± 0.15
I18L | -0.022 ± 0.099
I18N | -0.218 ± 0.18

Variant | abundance fitness
I18P | -0.191 ± 0.12
I18Q | -0.107 ± 0.14
I18R | -0.12 ± 0.091
I18S | -0.26 ± 0.12
I18T | 0.131 ± 0.14
I18V | -0.297 ± 0.11
I18W | -0.152 ± 0.14
I18Y | 0.162 ± 0.13
I19D | -0.248 ± 0.14
I19F | -0.277 ± 0.22
I19G | -0.177 ± 0.087
I19H | -0.111 ± 0.25
I19K | 0.19 ± 0.13
I19L | 0.093 ± 0.097
I19M | 0.313 ± 0.14
I19N | 0.167 ± 0.22
I19Q | 0.068 ± 0.16
I19R | -0.101 ± 0.1
I19S | -0.162 ± 0.11
I19T | 0.051 ± 0.11
I19V | -0.153 ± 0.1

Variant | abundance fitness
I19Y | 0.117 ± 0.18
L20C | 0.01 ± 0.15
L20D | 0.015 ± 0.16
L20E | -0.003 ± 0.14
L20F | 0.037 ± 0.15
L20G | 0.208 ± 0.099
L20I | 0.076 ± 0.17
L20K | 0.081 ± 0.11
L20M | 0.047 ± 0.12
L20N | 0.101 ± 0.15
L20P | 0.402 ± 0.11
L20Q | -0.143 ± 0.13
L20R | 0.149 ± 0.094
L20S | 0.171 ± 0.095
L20T | 0.262 ± 0.098
L20V | -0.078 ± 0.099
L20W | -0.205 ± 0.16
L20Y | 0.102 ± 0.16
C21A | -0.778 ± 0.16
C21D | -0.868 ± 0.26
C21E | -1.15 ± 0.28

Variant | abundance fitness
C21G | -0.637 ± 0.12
C21H | -0.806 ± 0.25
C21I | -0.818 ± 0.21
C21K | -0.846 ± 0.2
C21L | -0.74 ± 0.13
C21M | -0.901 ± 0.21
C21N | -0.903 ± 0.21
C21P | -0.984 ± 0.34
C21Q | -0.822 ± 0.2
C21S | -0.569 ± 0.13
C21T | -0.381 ± 0.17
C21V | -0.57 ± 0.13
C21W | -0.831 ± 0.15
C21Y | -0.692 ± 0.16
D22A | -0.31 ± 0.27
D22C | -0.229 ± 0.18
D22F | -0.344 ± 0.19
D22G | -0.191 ± 0.16
D22H | -0.388 ± 0.28
D22I | -0.021 ± 0.24
